In US20180002445A1 (published 2018):
One block for each binder: values may come before it.

What was measured:
[1] = target: T1, human catalase (human, UniProt P04040 2-527); assay: heading of the sequence table; ELISA selection
T1 construct: Target of the ELISA by which the clones were selected
T1 sequence (looked up): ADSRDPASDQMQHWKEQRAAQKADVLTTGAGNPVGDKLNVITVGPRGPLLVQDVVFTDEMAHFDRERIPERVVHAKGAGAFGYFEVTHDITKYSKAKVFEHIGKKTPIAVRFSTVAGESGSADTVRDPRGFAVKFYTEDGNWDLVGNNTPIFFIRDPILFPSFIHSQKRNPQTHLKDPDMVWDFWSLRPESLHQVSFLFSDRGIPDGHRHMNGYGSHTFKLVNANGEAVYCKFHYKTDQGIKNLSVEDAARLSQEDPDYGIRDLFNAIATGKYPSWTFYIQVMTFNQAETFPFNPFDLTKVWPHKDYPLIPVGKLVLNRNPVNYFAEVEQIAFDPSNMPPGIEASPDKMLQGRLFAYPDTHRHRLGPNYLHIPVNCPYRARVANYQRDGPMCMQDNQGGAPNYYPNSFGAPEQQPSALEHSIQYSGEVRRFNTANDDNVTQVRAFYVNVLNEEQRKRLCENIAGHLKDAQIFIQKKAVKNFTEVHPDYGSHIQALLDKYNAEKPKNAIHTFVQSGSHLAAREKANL

[2] = target: T2, membranous SOD of human tumor cells (MKN-45 gastric carcinoma, SHEP neuroblastoma) (human, UniProt P00441 2-154); assay: cell-based or functional assay
[3] = target: T3, human SOD1 (human, UniProt P00441 2-154); assay: heading of the sequence table; ELISA selection
T3 construct: Target of the ELISA by which the clones were selected; also called Cu/ZnSOD; superoxide dismutase

[4] = target: T2, membranous SOD of human tumor cells …; assay: cell-based or functional assay; remark: listed apart in the source
[5] = target: T4, membranous catalase of human tumor cells (MKN-45 gastric carcinoma, SHEP neuroblastoma) (human, UniProt P04040 2-527); assay: cell-based or functional assay
T4 sequence (looked up): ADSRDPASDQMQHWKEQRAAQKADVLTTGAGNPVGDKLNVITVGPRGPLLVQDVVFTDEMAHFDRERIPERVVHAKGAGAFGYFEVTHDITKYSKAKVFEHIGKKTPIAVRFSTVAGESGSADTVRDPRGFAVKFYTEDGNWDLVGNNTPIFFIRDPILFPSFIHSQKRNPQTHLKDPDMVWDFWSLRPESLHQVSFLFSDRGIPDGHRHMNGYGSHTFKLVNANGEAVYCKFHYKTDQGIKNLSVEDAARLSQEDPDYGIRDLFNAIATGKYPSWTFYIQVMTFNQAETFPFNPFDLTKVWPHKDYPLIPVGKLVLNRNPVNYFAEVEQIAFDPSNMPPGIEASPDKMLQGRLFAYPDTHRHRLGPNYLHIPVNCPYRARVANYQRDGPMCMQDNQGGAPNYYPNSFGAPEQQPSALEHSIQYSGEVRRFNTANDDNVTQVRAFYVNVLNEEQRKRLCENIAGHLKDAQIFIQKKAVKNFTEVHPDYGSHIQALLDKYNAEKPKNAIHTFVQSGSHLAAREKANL

T2 sequence (P00441 2-154): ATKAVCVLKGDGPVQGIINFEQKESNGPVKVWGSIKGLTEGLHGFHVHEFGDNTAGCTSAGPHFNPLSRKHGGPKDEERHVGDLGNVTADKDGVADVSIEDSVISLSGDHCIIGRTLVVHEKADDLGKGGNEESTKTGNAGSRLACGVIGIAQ
T3 sequence (P00441 2-154 limits assumed): as the sequence (P00441 2-154) above

binding result [1]: binds
B1: aCATcb0975 (VHH)
VHH: QVQLVESGGGLVQPGGSLRLSCAASASIFSIYVMAWYRQAPGKQRELVATVTSGGATNYANSVKGRFTISRDNAKNTMDLQMNSLKPEDTAVYYCNAEDYYDYGLSRSKIYWGQGTQVTVSS
notes: Recombinant alpaca single domain VHH fragment against human catalase

relation (molar basis) (against aCATaSOD) [2]: 2920 fold
relation to opt. conc. hybrid Fab (against aCATaSOD) [2]: 1460 fold
B2: aSODcb0989 (VHH)
VHH: QVQLVESGGGLVQSGGSLTLSCTASGFTISNYPMTWVRQAPGKGLEWVSRINSGGDRTLYADSVKGRFTVSRDNARNTMYLQMNNLKPEDTGLYFCADSGAGWRYWGQGTQVTVSS

concentration required for apoptosis induction in SHEP cells, against the neutralizing single domain VHH fragment [4]: 1e+06 fold
B5: aSODcb0991 (VHH)
VHH: QVQLVESGGGIVQPGGSLRLSCVASESISDIDAMYWHRQAPGKRRELVAGITNDGTEYFADSVKGRFAISRDNTKSSLYLQMNSLKLEDTAMYYCATLPNPPPGYWGQGTQVTVSS

relation (molar basis) (against aCATaSOD) [5]: 1420 fold
relation to opt. conc. hybrid Fab (against aCATaSOD) [5]: 708 fold
B7: aCATcb0972 (VHH)
VHH: QVQLVESGGGLVQAGGSLRLSCAASERTFNTYGMGWFRQAPGKEREFVATISWSGDSTYYADSVKGRFTISRDNAKNTMYLQMNSLKPEDTAVYYCNANSEYGDSYWGQGTQVTVSS

The remaining lines, values behind:

B3: aCATcb0974 (VHH)
VHH: QVQLVESGGGLVQPGGSLRLSCAASGSIFSIASMGWYRQAPGKQRDLVATITSDGSTKYADSVKGRFTISRDNAKNTMYLQMNSVKPEDAAVYYCNADADDLEPGSYDYDYWGQGTQVTVSS
notes: Recombinant alpaca single domain VHH fragment against human catalase; also called aCATcb9074
binding result [1]: binds

B4: aSODcb0987 (VHH)
VHH: QVQLVESGGGIVQPGGSLRLSCVASESISEIDAMYWHRQAPGKERELVAGITNDGTRYYADSVKGRFTISRDNAKSTLYLQMNSLKFEDTAMYYCAALPNPPPGYWGQGTQVTVSS
notes: Recombinant alpaca single domain VHH fragment against human SOD1
binding result [3]: binds

B6: aCATcb0973 (VHH)
VHH: EVQLVESGGGLVQPGGSLRLSCAVSGFIFNTYSMRWGRQAPGKGLEWVSSISTGGYSTYADSVKGRFTISRDNAKNLVYLQMNSLKPEDTAVYYCGWGAFVRGERPQGQGTQVTVSS
notes: as for B1
binding result [1]: binds
